Test results published in patent US20250059288A1 (GRANITE BIO, published 2025).
Blank lines part the entries; values can stand above or below the binder they belong to.

Key:
[1] = biological target: T1, Human CCR2b with the N-terminus of CCR2b of rhesus monkey (human, with rhesus monkey N-terminus, UniProt O18793 1-360 (rhesus entry)); assay: flow cytometry on stably transfected CHO cells, 10 µg/ml
T1 construct: On stably transfected CHO cells
T1 chain: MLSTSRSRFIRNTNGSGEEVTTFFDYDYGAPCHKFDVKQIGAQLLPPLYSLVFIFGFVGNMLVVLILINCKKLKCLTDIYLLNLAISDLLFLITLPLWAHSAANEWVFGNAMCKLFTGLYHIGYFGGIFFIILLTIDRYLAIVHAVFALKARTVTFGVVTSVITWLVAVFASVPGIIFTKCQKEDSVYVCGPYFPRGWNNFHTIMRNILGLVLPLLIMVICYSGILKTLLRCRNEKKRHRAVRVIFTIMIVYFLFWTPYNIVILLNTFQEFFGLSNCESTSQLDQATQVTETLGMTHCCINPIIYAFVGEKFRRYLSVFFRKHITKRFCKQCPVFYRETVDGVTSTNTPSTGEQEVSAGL
Protocol: (§1) To further investigate the specificity of the antibodies of the present invention, binding of Y4T3 to various CCR2 constructs was tested. […] Untransfected CHO cells (empty) were also analyzed. Antibodies were tested at concentration of 10 μg/ml and incubated with the cells for 30 min on ice. After 3 washing steps with cold PBS, the bound antibodies were detected with a PE-labeled polyclonal rabbit anti-mouse immunoglobulins antibody (R0439 from Agilent Dako, diluted 1:200 in PBS) for 30 min on ice. After two washing steps with PBS, cells were analyzed by flow cytometry. Mean fluorescence intensity for PE was determined on cells and is depicted.

[2] = biological target: T2, Human CCR2b with ECL3 domain of CCR2b of rhesus monkey (human, with rhesus monkey ECL3 domain, UniProt O18793 1-360 (rhesus entry)); assay: as above
T2 construct: On stably transfected CHO cells
T2 chain: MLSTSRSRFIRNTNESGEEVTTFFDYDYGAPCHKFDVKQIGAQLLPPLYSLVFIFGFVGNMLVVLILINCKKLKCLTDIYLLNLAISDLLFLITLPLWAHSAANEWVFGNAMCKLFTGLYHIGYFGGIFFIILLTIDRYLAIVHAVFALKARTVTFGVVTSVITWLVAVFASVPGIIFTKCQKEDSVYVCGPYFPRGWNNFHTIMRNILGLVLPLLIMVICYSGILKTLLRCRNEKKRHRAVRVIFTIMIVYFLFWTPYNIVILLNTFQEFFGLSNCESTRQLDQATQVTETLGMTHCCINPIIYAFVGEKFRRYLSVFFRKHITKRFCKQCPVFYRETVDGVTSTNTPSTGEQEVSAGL
Protocol: as §1

[3] = biological target: T3, Human CCR2b with the ECL2 domain of CCR2b of rhesus monkey (ECL2-hCCR2b) (human, with rhesus monkey ECL2 domain, UniProt O18793 1-360 (rhesus entry)); assay: flow cytometry on stably transfected CHO cells
T3 construct: On stably transfected CHO cells
T3 chain: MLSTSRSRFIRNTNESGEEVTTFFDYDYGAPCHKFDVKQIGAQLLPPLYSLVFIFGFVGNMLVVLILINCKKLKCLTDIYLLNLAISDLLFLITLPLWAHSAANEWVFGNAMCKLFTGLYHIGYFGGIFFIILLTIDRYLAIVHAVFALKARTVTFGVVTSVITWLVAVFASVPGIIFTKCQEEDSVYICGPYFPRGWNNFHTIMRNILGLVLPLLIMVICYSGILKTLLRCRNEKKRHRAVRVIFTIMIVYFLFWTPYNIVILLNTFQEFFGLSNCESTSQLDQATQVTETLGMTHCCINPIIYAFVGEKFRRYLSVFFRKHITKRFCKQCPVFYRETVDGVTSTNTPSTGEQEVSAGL
Protocol: as §1

[4] = biological target: T4, Rhesus CCR2b (rh-CCR2B) (rhesus monkey (Macaca mulatta), UniProt O18793 1-360); assay: flow cytometry on stably transfected CHO cells
T4 construct: On stably transfected CHO cells
T4 sequence: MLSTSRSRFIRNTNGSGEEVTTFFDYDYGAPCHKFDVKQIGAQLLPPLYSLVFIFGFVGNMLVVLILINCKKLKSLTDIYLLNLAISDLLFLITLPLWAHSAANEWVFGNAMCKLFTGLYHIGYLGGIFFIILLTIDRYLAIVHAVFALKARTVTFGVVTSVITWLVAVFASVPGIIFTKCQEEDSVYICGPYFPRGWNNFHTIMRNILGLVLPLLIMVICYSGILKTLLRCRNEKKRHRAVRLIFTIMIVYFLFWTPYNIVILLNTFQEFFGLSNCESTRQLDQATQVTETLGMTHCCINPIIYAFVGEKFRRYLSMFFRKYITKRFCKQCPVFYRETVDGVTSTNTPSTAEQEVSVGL
Protocol: as §1

[5] = biological target: T5, Human CCR2b (hCCR2b) (human, UniProt P41597-2 1-360); assay: flow cytometry on human whole blood, classical monocytes, median fluorescence intensity
T5 construct: also called CD192; MCP-1 receptor
T5 sequence: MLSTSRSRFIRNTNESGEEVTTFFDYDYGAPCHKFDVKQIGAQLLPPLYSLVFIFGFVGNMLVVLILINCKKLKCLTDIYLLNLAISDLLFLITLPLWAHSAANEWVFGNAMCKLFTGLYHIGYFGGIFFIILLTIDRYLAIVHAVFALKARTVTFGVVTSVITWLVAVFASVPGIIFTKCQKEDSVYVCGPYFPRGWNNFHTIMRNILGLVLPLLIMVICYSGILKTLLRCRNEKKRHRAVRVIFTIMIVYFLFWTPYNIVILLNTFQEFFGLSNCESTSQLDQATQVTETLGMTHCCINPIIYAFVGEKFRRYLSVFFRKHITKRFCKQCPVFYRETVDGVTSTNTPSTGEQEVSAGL
Protocol: Human heparinized whole blood was incubated with the indicated antibodies for 45 min on ice, washed three times with cold PBS, then stained with secondary PE-labeled rabbit-anti-mouse Ig (R0439, DakoCytomation 1:200) for 30 min on ice, washed 3 times with cold PBS. The 10% mouse serum was added for 10 min and after that directly labeled antibodies against CD3-APCCy7, CD8-PE-Cy7, CD4-V500, CD123-PerCP, CD304-APC, CD116-FITC, CD16-PB. After washing and lysis of red blood cells with BD Lysing solution cells were acquired on a FACSCanto-II and analyzed by FACS-DIVA software. Classical monocytes were identified by light scatter properties, expression of CD116 and absence of CD16 and CD123. Median fluorescence intensity for PE is depicted on classical monocytes.

[6] = biological target: T6, Human CCR5 (human, UniProt P51681 1-352); assay: summary table; binding to human CCR5
T6 construct: On transfected CHO cells; also called CD195

[7] = biological target: T7, Marmoset CCR2b (Marmo-CCR2b) (marmoset monkey (Callithrix jacchus)); assay: summary table; affinity to CCR2 expressed on marmoset PBMCs
T7 construct: On transfected CHO cells and, as native CCR2, on marmoset monocytes (splenocytes, PBMCs)
T7 chain: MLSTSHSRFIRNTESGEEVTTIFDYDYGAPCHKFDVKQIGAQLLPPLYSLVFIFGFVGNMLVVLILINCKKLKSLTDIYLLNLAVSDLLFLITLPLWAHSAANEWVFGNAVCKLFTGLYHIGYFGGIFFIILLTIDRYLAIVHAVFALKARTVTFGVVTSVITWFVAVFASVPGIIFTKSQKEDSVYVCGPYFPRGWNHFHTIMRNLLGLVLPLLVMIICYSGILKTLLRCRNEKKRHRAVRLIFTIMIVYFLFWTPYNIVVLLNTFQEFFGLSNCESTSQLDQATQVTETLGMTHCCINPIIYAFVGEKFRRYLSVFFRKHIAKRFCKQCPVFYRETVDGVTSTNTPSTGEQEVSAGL

[8] = biological target: T6, Human CCR5; assay: flow cytometry on CHO cells transfected with human CCR5
[9] = biological target: T8, Mouse CCR2 (mouse, UniProt P51683 1-373); assay: flow cytometry on mouse CCR2 CHO cells, various concentrations
T8 construct: whole, on cells
Protocol: Mouse CCR2 CHO cells and human CCR2 CHO cells were incubated for 45 min on ice with PBS or various concentrations of hY4T3. After 3 washing steps with cold PBS, cells were stained PE-F(ab)2 goat anti human IgG (1:300; Jackson, Cat.No.109-116-098) for 30 min on ice. After 3 washing steps with cold PBS cells were analyzed by FACS to measure mean fluorescence intensity (MFI).

[10] = biological target: T5, Human CCR2b (hCCR2b); assay: flow cytometry on human whole blood, 0.5 µg/ml
Source text: Y4T3 was humanized by CDR-grafting resulting in hY4T3. Databases of Human IgG sequences and human germline sequences were searched for comparison to the murine VH domain and VL domain using BLAST search algorithms, and candidate human variable domains selected from the top 200 BLAST results. These were reduced to five candidates for VH (HC1-HC5 or H1-H5) and five candidates for VL (LC1-LC5 or L1-L5) based on a combination of framework homology, maintaining key framework residues and canonical loop structure. In total 25 humanized variants of Y4T3 were generated. The humanized Y4T3 variants were tested for binding to human CCR2+ monocytes in whole human blood by flow cytometry. 60 μl of lithium-heparin anticoagulated human whole blood was incubated for 45 min on ice with the indicated antibodies at 0.5 μg/ml in PBS. After three washing steps with cold PBS the bound antibodies were detected with PE-F(ab)2 goat anti human IgG (Jackson ImmunoResearch, 109-116-098) together with directly labeled antibodies against CD8, CD4, CD123 and CD116. After 2 washing steps with 0.9% NaCl red blood cells were lysed with Lysing Solution (BDBioscience) for 10 min in the dark. Cells were washed once with PBS and analyzed by flow cytometry to identify CCR2 expression on various cell types including monocytes. Mean fluorescence intensity (MFI) for PE was determined for these cell populations and is depicted.

[11] = biological target: T7, Marmoset CCR2b (Marmo-CCR2b); assay: flow cytometry on marmoset splenocytes (legend of FIG. 8)

T6 sequence (P51681 whole entry): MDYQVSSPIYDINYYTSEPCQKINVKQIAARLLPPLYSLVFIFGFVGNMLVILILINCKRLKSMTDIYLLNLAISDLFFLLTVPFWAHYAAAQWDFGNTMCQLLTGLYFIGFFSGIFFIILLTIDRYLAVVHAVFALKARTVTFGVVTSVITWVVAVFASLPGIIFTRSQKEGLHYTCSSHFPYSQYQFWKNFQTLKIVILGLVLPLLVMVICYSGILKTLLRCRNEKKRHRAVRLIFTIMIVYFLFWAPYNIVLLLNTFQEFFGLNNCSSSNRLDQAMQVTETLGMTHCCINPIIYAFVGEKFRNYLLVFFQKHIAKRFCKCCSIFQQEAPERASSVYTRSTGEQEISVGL
T8 sequence (P51683 whole entry): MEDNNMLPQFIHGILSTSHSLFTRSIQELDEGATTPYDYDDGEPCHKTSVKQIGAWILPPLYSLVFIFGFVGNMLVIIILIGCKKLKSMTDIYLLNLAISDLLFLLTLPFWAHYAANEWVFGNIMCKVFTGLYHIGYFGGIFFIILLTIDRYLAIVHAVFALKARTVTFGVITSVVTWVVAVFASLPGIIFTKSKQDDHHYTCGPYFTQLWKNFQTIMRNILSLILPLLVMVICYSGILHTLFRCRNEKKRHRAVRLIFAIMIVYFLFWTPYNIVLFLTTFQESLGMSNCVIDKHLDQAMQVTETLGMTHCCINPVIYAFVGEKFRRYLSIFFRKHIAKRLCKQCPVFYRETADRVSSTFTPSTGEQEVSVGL

B1: Antibody Y4T3 (antibody, V domains shown)
VH: QVHLQQSGTELARPGASIKLSCKTSGSTFTRYTMHWIKQRPGQGLEWIGFIVPSTGYTKYNQKFKDKATLTADKSSSTAYMHLNSLTSEDSALYYCARNKEVDYGASWGQGTLVTVSA
VL: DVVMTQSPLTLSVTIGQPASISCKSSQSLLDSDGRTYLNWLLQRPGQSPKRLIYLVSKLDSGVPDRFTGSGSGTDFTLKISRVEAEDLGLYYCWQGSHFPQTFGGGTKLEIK
notes: also called Y3T3 [sic]; Y4T4 [sic]
- binding result [1]: binds
- binding result [2]: binds
- binding result [3]: no binding (tested: 10 µg/ml)
- binding result [4]: no binding (tested: 10 µg/ml)
- fold higher affinity than the tested prior art antibodies (DOC2, 1D9, Clone 48607) [5]: > 5 fold
- binding result [6]: no binding
- binding result [7]: binds

B2: human IgG1 chimeric variant of Y4T3 (Y4T3-chim) (antibody, V domains shown)
VH: QVHLQQSGTELARPGASIKLSCKTSGSTFTRYTMHWIKQRPGQGLEWIGFIVPSTGYTKYNQKFKDKATLTADKSSSTAYMHLNSLTSEDSALYYCARNKEVDYGASWGQGTLVTVSA
VL: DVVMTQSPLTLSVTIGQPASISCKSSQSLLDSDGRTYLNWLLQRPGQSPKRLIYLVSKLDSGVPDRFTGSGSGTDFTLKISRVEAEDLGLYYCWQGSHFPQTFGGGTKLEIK
notes: also called H0L0
- binding result [8]: no binding (tested: 10 µg/ml and 1 µg/ml)

The next lines start with results.

- binding result [9]: no binding
- binding result [10]: binds
- binding result [11]: binds
B3: hY4T3 (humanized Y4T3, variant H3L1) (antibody, V domains shown)
VH: QVQLVQSGAEVKKPGASVKVSCKASGSTFTRYTMHWVRQAPGQRLEWIGFIVPSTGYTKYNQKFKDRVTITRDTSASTAYMELSSLRSEDTAVYYCARNKEVDYGASWGQGTLVTVSS
VL: DVVMTQSPLSLPVTLGQPASISCKSSQSLLDSDGRTYLNWFQQRPGQSPRRLIYLVSKLDSGVPDRFSGSGSGTDFTLKITRVEAEDVGVYYCWQGSHFPQTFGQGTKVEIK
notes: detected with anti-human IgG; Human IgG1 is named as the preferred class
- binding result [8]: no binding (tested: 10 µg/ml and 1 µg/ml)

- binding result [5]: binds
B4: DOC-2 antibody (antibody, V domains shown)
VH: EVQLVESGGGLVKPGGSLKLSCVASGFTLSNYAMSWVRQSPEKRLEWVAEVSSSGIYIYYSDTVTGRFSISRDNAKNTLYLEMSSLRSEDTAIYYCARDRYAYAMDYWGHGTSVIVSS
VL: DIVMTQSPSSLAISVGQRVTLSCKSSQSLLNSYNQKNSLAWYQQKPGQSPKLLVYFASTRESGVPDRFIGSGSGTYFTLTITSVQAGDLADYFCQQHYSNPRTFGGGTRLEIK
notes: Prior art anti-CCR2 antibody; detected with anti-mouse Ig
